Data as given in the supplement of paper PMC9112550, “Optimization of the antimicrobial peptide Bac7 by deep mutational scanning” (BMC Biology, 2022).

Tested on: Escherichia coli TOP10
Test: shrunken log2 fold change of peptide-encoding DNA abundance (4.5 h post-induction vs induction); higher = less antimicrobial activity (less host growth inhibition)
Settings: time post-induction: 4.5 h; library: site-saturation at positions 5, 18, 19, 20
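Further: peptides expressed intracellularly from a pBAD plasmid library in pooled LB shake-flask culture, induced with 0.3% L-arabinose, DNA abundance read by NGS, three biological replicates, DESeq2 with apeglm shrinkage.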

| Sequence | shrunken log2 fold change |
| --- | --- |
| RRIRKRPPRLPRPRPRPSEKPRP | 0.428 |
| RRIRIRPPRLPRPRPRPFYWPRP | -0.12 |
| RRIRTRPPRLPRPRPRPTCHPRP | -0.405 |
| RRIRRRPPRLPRPRPRPILHPRP | -0.0819 |
| RRIRCRPPRLPRPRPRPMTGPRP | -0.103 |
| RRIRPRPPRLPRPRPRPMCPPRP | -0.267 |
| RRIRPRPPRLPRPRPRPPMLPRP | 0.18 |
| RRIRGRPPRLPRPRPRPDVCPRP | 0.181 |
| RRIRYRPPRLPRPRPRPSVKPRP | -0.119 |
| RRIRWRPPRLPRPRPRPRIAPRP | 0.133 |
| RRIRWRPPRLPRPRPRPSAYPRP | -0.549 |
| RRIRSRPPRLPRPRPRPVTWPRP | 0.0066 |
| RRIRTRPPRLPRPRPRPERWPRP | 0.354 |
| RRIRWRPPRLPRPRPRPAGMPRP | 0.321 |
| RRIRQRPPRLPRPRPRPMWMPRP | 0.0583 |
| RRIRLRPPRLPRPRPRPNNRPRP | -0.79 |
| RRIRIRPPRLPRPRPRPHFTPRP | -0.0792 |
| RRIRCRPPRLPRPRPRPVWLPRP | 0.0721 |
| RRIRVRPPRLPRPRPRPRIRPRP | -0.202 |
| RRIRSRPPRLPRPRPRPHQYPRP | -0.549 |
| RRIRHRPPRLPRPRPRPKKAPRP | 0.0601 |
| RRIRRRPPRLPRPRPRPMRRPRP | 0.425 |
| RRIRARPPRLPRPRPRPPRFPRP | 1.13 |
| RRIRFRPPRLPRPRPRPLIPPRP | -0.651 |
| RRIRTRPPRLPRPRPRPCMSPRP | -0.196 |

| Sequence | shrunken log2 fold change |
| --- | --- |
| RRIRRRPPRLPRPRPRPRNAPRP | 0.356 |
| RRIRKRPPRLPRPRPRPVIPPRP | -0.26 |
| RRIRKRPPRLPRPRPRPKMYPRP | -0.0411 |
| RRIRIRPPRLPRPRPRPLSLPRP | -0.868 |
| RRIRARPPRLPRPRPRPMYFPRP | -0.154 |
| RRIRCRPPRLPRPRPRPGWQPRP | 0.331 |
| RRIRTRPPRLPRPRPRPMFGPRP | 0.115 |
| RRIRVRPPRLPRPRPRPLSQPRP | -0.032 |
| RRIRFRPPRLPRPRPRPTGEPRP | 0.583 |
| RRIRTRPPRLPRPRPRPIRPPRP | 0.122 |
| RRIRDRPPRLPRPRPRPQQGPRP | -0.00207 |
| RRIRRRPPRLPRPRPRPPQLPRP | 1.02 |
| RRIRLRPPRLPRPRPRPREAPRP | 0.641 |
| RRIRGRPPRLPRPRPRPMCDPRP | 1.07 |
| RRIRTRPPRLPRPRPRPDKKPRP | -0.0143 |
| RRIRYRPPRLPRPRPRPPPFPRP | 0.328 |
| RRIRGRPPRLPRPRPRPHVCPRP | 0.359 |
| RRIRQRPPRLPRPRPRPCSLPRP | -1.03 |
| RRIRPRPPRLPRPRPRPVPWPRP | 0.548 |
| RRIRLRPPRLPRPRPRPTFVPRP | -0.162 |
| RRIRTRPPRLPRPRPRPRCKPRP | 0.0432 |
| RRIRARPPRLPRPRPRPDGDPRP | -0.036 |
| RRIRPRPPRLPRPRPRPQSTPRP | -0.136 |
| RRIRIRPPRLPRPRPRPKQFPRP | -0.328 |
| RRIRRRPPRLPRPRPRPICTPRP | 0.391 |

| Sequence | shrunken log2 fold change |
| --- | --- |
| RRIRHRPPRLPRPRPRPSKPPRP | 0.00696 |
| RRIRSRPPRLPRPRPRPDQHPRP | -0.0484 |
| RRIRFRPPRLPRPRPRPSAEPRP | 0.0747 |
| RRIRQRPPRLPRPRPRPTKIPRP | -0.13 |
| RRIRQRPPRLPRPRPRPQHYPRP | -0.447 |
| RRIRQRPPRLPRPRPRPRPNPRP | 0.183 |
| RRIRQRPPRLPRPRPRPCWEPRP | -0.126 |
| RRIRDRPPRLPRPRPRPGEQPRP | 0.259 |
| RRIRRRPPRLPRPRPRPLNMPRP | -0.126 |
| RRIRERPPRLPRPRPRPMQMPRP | -0.254 |
| RRIRSRPPRLPRPRPRPTVNPRP | -0.477 |
| RRIRLRPPRLPRPRPRPDSHPRP | -0.46 |
| RRIRMRPPRLPRPRPRPMLTPRP | 2.52 |
| RRIRMRPPRLPRPRPRPQKQPRP | 0.0157 |
| RRIRTRPPRLPRPRPRPTDHPRP | -0.283 |
| RRIRMRPPRLPRPRPRPTWRPRP | 0.894 |
| RRIRNRPPRLPRPRPRPCIFPRP | -0.697 |
| RRIRYRPPRLPRPRPRPQFPPRP | -0.0877 |
| RRIRERPPRLPRPRPRPTLAPRP | 0.269 |
| RRIRHRPPRLPRPRPRPEIVPRP | -0.0182 |
| RRIRARPPRLPRPRPRPWRYPRP | -0.163 |
| RRIRIRPPRLPRPRPRPLMKPRP | -0.232 |
| RRIRARPPRLPRPRPRPAHYPRP | 0.095 |
| RRIRTRPPRLPRPRPRPMIGPRP | -0.107 |
| RRIRLRPPRLPRPRPRPCWCPRP | 0.0793 |

| Sequence | shrunken log2 fold change |
| --- | --- |
| RRIRKRPPRLPRPRPRPKRKPRP | 0.89 |
| RRIRNRPPRLPRPRPRPKDDPRP | 0.0456 |
| RRIRERPPRLPRPRPRPDTMPRP | -0.336 |
| RRIRNRPPRLPRPRPRPTPLPRP | 0.268 |
| RRIRSRPPRLPRPRPRPMTAPRP | -0.0379 |
| RRIRNRPPRLPRPRPRPKPNPRP | 0.513 |
| RRIRNRPPRLPRPRPRPLDFPRP | -0.386 |
| RRIRKRPPRLPRPRPRPEYAPRP | -0.000279 |
| RRIRQRPPRLPRPRPRPKAIPRP | 0.0432 |
| RRIRNRPPRLPRPRPRPGNIPRP | -0.161 |
| RRIRIRPPRLPRPRPRPTQHPRP | 0.0549 |
| RRIRCRPPRLPRPRPRPDMQPRP | -0.672 |
| RRIRDRPPRLPRPRPRPCVWPRP | 0.321 |
| RRIRSRPPRLPRPRPRPYYTPRP | -0.576 |
| RRIRARPPRLPRPRPRPISRPRP | 0.354 |
| RRIRHRPPRLPRPRPRPNHHPRP | -0.797 |
| RRIRARPPRLPRPRPRPCKTPRP | 0.107 |
| RRIRRRPPRLPRPRPRPQYEPRP | -0.00402 |
| RRIRERPPRLPRPRPRPSTGPRP | -0.467 |
| RRIRARPPRLPRPRPRPVFIPRP | -0.201 |
| RRIRQRPPRLPRPRPRPWMTPRP | -0.00186 |
| RRIRDRPPRLPRPRPRPYFNPRP | -0.849 |
| RRIRQRPPRLPRPRPRPFNPPRP | -0.077 |
| RRIRRRPPRLPRPRPRPYITPRP | -0.523 |
| RRIRHRPPRLPRPRPRPLPMPRP | -0.00404 |

| Sequence | shrunken log2 fold change |
| --- | --- |
| RRIRCRPPRLPRPRPRPTWSPRP | 0.346 |
| RRIRGRPPRLPRPRPRPDIPPRP | 0.23 |
| RRIRTRPPRLPRPRPRPCVIPRP | -0.029 |
| RRIRHRPPRLPRPRPRPYRAPRP | -0.258 |
| RRIRGRPPRLPRPRPRPPPFPRP | 0.887 |
| RRIRRRPPRLPRPRPRPMHNPRP | 0.384 |
| RRIRNRPPRLPRPRPRPEMLPRP | 0.0345 |
| RRIRRRPPRLPRPRPRPQCPPRP | -0.178 |
| RRIRERPPRLPRPRPRPVMLPRP | 0.055 |
| RRIRRRPPRLPRPRPRPMEPPRP | 0.0257 |
| RRIRDRPPRLPRPRPRPPSSPRP | -0.0759 |
| RRIRGRPPRLPRPRPRPYYPPRP | -0.791 |
| RRIRVRPPRLPRPRPRPTVGPRP | 0.553 |
| RRIRGRPPRLPRPRPRPVWGPRP | 1.08 |
| RRIRCRPPRLPRPRPRPKAVPRP | 0.564 |
| RRIRFRPPRLPRPRPRPHPGPRP | -0.137 |
| RRIRNRPPRLPRPRPRPRERPRP | 0.0512 |
| RRIRLRPPRLPRPRPRPMIVPRP | -0.199 |
| RRIRMRPPRLPRPRPRPGKPPRP | 0.0496 |
| RRIRNRPPRLPRPRPRPSWPPRP | -0.0605 |
| RRIRHRPPRLPRPRPRPWRLPRP | -0.0125 |
| RRIRTRPPRLPRPRPRPMWDPRP | 0.00971 |
| RRIRGRPPRLPRPRPRPCPIPRP | -0.0298 |
| RRIRQRPPRLPRPRPRPYKEPRP | -0.0137 |
| RRIRDRPPRLPRPRPRPFLCPRP | 0.0956 |

| Sequence | shrunken log2 fold change |
| --- | --- |
| RRIRERPPRLPRPRPRPQFGPRP | 0.222 |
| RRIRNRPPRLPRPRPRPCALPRP | -0.135 |
| RRIRNRPPRLPRPRPRPRVIPRP | -0.21 |
| RRIRLRPPRLPRPRPRPIHVPRP | -0.0124 |
| RRIRERPPRLPRPRPRPHDKPRP | -0.784 |
| RRIRARPPRLPRPRPRPYDAPRP | 0.0611 |
| RRIRDRPPRLPRPRPRPMRLPRP | 0.674 |
| RRIRNRPPRLPRPRPRPYFSPRP | -0.225 |
| RRIRRRPPRLPRPRPRPCKSPRP | 0.263 |
| RRIRLRPPRLPRPRPRPFEQPRP | 0.305 |
| RRIRHRPPRLPRPRPRPVWVPRP | -0.0634 |
| RRIRHRPPRLPRPRPRPPHDPRP | 0.047 |
| RRIRVRPPRLPRPRPRPMRSPRP | 0.604 |
| RRIRIRPPRLPRPRPRPHEIPRP | -0.256 |
| RRIRTRPPRLPRPRPRPEWRPRP | 0.338 |
| RRIRSRPPRLPRPRPRPNHNPRP | -0.784 |
| RRIRPRPPRLPRPRPRPLMAPRP | 0.213 |
| RRIRRRPPRLPRPRPRPPLTPRP | 0.841 |
| RRIRKRPPRLPRPRPRPLAEPRP | 1.11 |
| RRIRDRPPRLPRPRPRPQWGPRP | -0.0612 |
| RRIRPRPPRLPRPRPRPKGRPRP | -0.086 |
| RRIRCRPPRLPRPRPRPIFGPRP | -0.0692 |
| RRIRKRPPRLPRPRPRPKDLPRP | 0.0142 |
| RRIRFRPPRLPRPRPRPHTLPRP | -0.62 |
| RRIRARPPRLPRPRPRPQVLPRP | -0.0334 |
